# Legend:
# Assay in all cases: purified protein, by the assay type
# [1] = substrate: CC(=O)C(C)=O
# [2] = substrate: CCCCC(=O)C(C)=O; settings: other: rate constants for the major substrates, mouse enzyme; pH 7.0; 25.0 °C
# Experimental: (§1) The enzyme activity assay method is not particularly restricted, and it may be based on the activity assay method for mouse carbonyl reductase (CR) (Eur. J. Biochem. 22, 381-387(1995)).
# (§2) • (1) This was assayed under the following conditions. The reaction mixture (total: 2.0 ml) comprised an 80 mM potassium phosphate solution (pH 7.0 or 6.0), 0.1 mM NADPH or NADH and a carbonyl substrate or enzyme (50 µl) (10.1 µg or 3.7 µg of glomerin B). The oxidation rate for NAD(P)H was measured at 340 nm. One unit of enzyme activity was defined as that which catalyzed oxidation of 1 µmol of NAD(P)H in one minute at 25°C. • (2) The substrate specificity of protein DCR1 for carbonyl compounds is summarized in Table 1. • (3) pH dependency of diacetyl reductase activity due to protein DCR1 The activity was measured using 10 mM diacetyl, and the specific activity was calculated based on the protein concentration in the protein DCR1 sample (Fig. 7).
# [3] = substrate: O=Cc1ccncc1; settings: other: rate constants for the major substrates, mouse enzyme; pH 7.0; 25.0 °C
# Experimental: as §1, §2
# [4] = substrate: CCC(=O)C(C)=O
# [5] = substrate: O=Cc1cccnc1; settings: other: rate constants for the major substrates, mouse enzyme; pH 7.0; 25.0 °C
# Experimental: as §1, §2
# [6] = substrate: COC(=O)C(C)=O; settings: other: rate constants for the major substrates, mouse enzyme; pH 7.0; 25.0 °C
# Experimental: as §1, §2
# [7] = substrate: COC(=O)C(=O)c1ccccc1; settings: other: rate constants for the major substrates, mouse enzyme; pH 7.0; 25.0 °C
# Experimental: as §1, §2
# [8] = substrate: CCC(=O)C(=O)CC
# [9] = substrate: CC(=O)C(=O)c1ccccc1; settings: pH 7.0; 25.0 °C
# Experimental: as §1, §2
# [10] = substrate: CCCC(=O)C(C)=O
# [11] = substrate: CC(=O)C(C)O; settings: other: rate constants for the major substrates, mouse enzyme; pH 7.0; 25.0 °C
# Experimental: as §1, §2
# [12] = substrate: O=C(CBr)C(=O)CBr; settings: other: assay at pH 7.0, 25.0 °C
# Experimental: The enzyme used here was an expressed recombinant enzyme. • (a) Substrate specificity: In order to determine the substrate specificity, there may be used a hydrocarbon system including various ketone, aldehyde and ester groups, or an aromatic compound.
# The reaction mixture (total: 2.0 ml) comprised an 80 mM potassium phosphate solution (pH 7.0 or 6.0), 0.1 mM NADPH or NADH and a carbonyl substrate or enzyme (50 µl) (10.1 µg or 3.7 µg of hDCR1).
# The oxidation rate for NAD(P)H was measured at 340 nm.
# One unit of enzyme activity was defined as that which catalyzed oxidation of 1 µmol of NAD(P)H in one minute at 25°C.
# [13] = other: rate constants for the major substrates, mouse enzyme, pH 7.0, 25.0 °C
# [14] = other: assay at pH 7.0, 25.0 °C
protein,measurement,setting,value
protein DCR1 (Mus musculus) (protein) MDLGLAGRRALVTGAGKGIGRSTVLALKAAGAQVVAVSRTREDLDDLVRECPGVEPVCVDLADWEATEQALSNVGPVDLLVNNAAVALLQPFLEVTKEACDTSFNVNLRAVIQVSQIVAKGMIARGVPGAIVNVSSQASQRALTNHTVYCSTKGALDMLTKMMALELGPHKIRVNAVNPTVVMTPMGRTNWSDPHKAKAMLDRIPLGKFAEVENVVDTILFLLSNRSGMTTGSTLPVDGGFLAT,Km,[1]; [13],900 µM
same,Km,[2],200 µM
same,Vmax,[2],4.4 unit/mg
same,Vmax/Km,[2],22 unit/mg/mM
same,Km,[3],"4,400 µM"
same,Vmax,[3],0.78 unit/mg
same,Vmax/Km,[3],0.18 unit/mg/mM
same,Km,[4]; [13],280 µM
same,Vmax,[4]; [13],5.7 unit/mg
same,Vmax/Km,[4]; [13],20 unit/mg/mM
same,Km,[5],"7,900 µM"
same,Vmax,[5],0.62 unit/mg
same,Vmax/Km,[5],0.08 unit/mg/mM
same,Km,[6],"1,700 µM"
same,Vmax,[6],2.7 unit/mg
same,Vmax/Km,[6],1.6 unit/mg/mM
same,Km,[7],690 µM
same,Vmax,[7],8.7 unit/mg
same,Vmax/Km,[7],13 unit/mg/mM
same,Km,[8]; [13],130 µM
same,Vmax,[8]; [13],6.6 unit/mg
same,Vmax/Km,[8]; [13],51 unit/mg/mM
same,Km,[9],140 µM
same,Vmax,[9],6.7 unit/mg
same,Vmax/Km,[9],48 unit/mg/mM
same,Km,[10]; [13],230 µM
same,Vmax,[10]; [13],4.1 unit/mg
same,Vmax/Km,[10]; [13],18 unit/mg/mM
same,Km,[11],"6,500 µM"
same,Vmax,[11],0.51 unit/mg
same,Vmax/Km,[11],0.08 unit/mg/mM
protein hDCR1 (Homo sapiens) (protein) MELFLAGRRVLVTGAGKGIGRGTVQALHATGARVVAVSRTQADLDSLVRECPGIEPVCVDLGDWEATERALGSVGPVDLLVNNAAVALLQPFLEVTKEAFDRSFEVNLRAVIQVSQIVARGLIARGVPGAIVNVSSQCSQRAVTNHSVYCSTKGALDMLTKVMALELGPHKIRVNAVNPTVVMTSMGQATWSDPHKAKTMLNRIPLGKFAEVEHVVNAILFLLSDRSGMTTGSTLPVEGGFWAC,Km,[1]; [14],(0.25) mM
same,Km,[4]; [14],(0.26) mM
same,Km,[12],(0.016) mM
same,Km,[8]; [14],(0.12) mM
same,Km,[10]; [14],(0.24) mM

# Source: patent EP1063290A1, “NOVEL DICARBONYLREDUCTASE AND GENE ENCODING THE SAME” (TAISHO PHARMACEUTICAL CO., LTD, priority 1998, dated 1999)
